Assay results as given in patent US20100291089A1, “LIGAND OF REGULATING IMMUNE RESPONSE, AND USE THEREOF IN TREATING AN IMMUNE RESPONSE-RELATED DISEASE” (POSTECH ACADEMY-INDUSTRY FOUNDATION, priority 2005, published 2010).
Where no end group is shown, it is not given here. [ ]: non-standard residue; d: D form.

B1: SAA: Serum amyloid A, multi-functional apolipoprotein, 12- to 14-kDa, SEQ ID NO:19 (protein, listed as Homo sapiens)
chain: MKLLTGLVFCSLVLGVSSRSFFSFLGEAFDGARDMWRAYSDMREANYIGSDKYFHARGNYDAAKRGPGGVWAAEAISDARENIQRFFGHGAEDSLADQAANEWGRSGKDPNHFRPAGLPEKY

Key:
[1] = tested on: RA FLS; assay: Apoptosis assay (MTT, DNA fragmentation ELISA) in RA FLS; type: cell-based, human; conditions: for serum starvation-induced apoptosis (MTT assay, DNA fragmentation ELISA): 72 h
Procedure: Synoviocyte apoptosis was induced via 3 days of serum deprivation, or by treating the cells for 12 h with either SNP (0.7 mM) or anti-Fas IgM (0.7 μg/ml) plus cyclohexamide (CHX; 1 μg/ml). The degree of apoptosis was then evaluated via MTT assay and ELISA for DNA fragmentation. In the MTT assay, FLS were seeded in 24-well culture plates at a density of 2×10^4 cells/well. After 96 h of incubation with SAA (SEQ ID NO:19) or media alone, MTT solution was added to each of the wells, and then incubated for 2 additional hours. The reaction was halted via the removal of MTT. Thereafter, DMSO (200 μL) was added in order to solubilize the formazan crystals. The plates were then subjected to 5 minutes of gentle shaking in order to ensure that the crystals had dissolved completely, and the absorbance was read at 540 nm with a microplate reader. The cellular DNA fragmentation assay was conducted using an ELISA kit (Roche Applied Science), based on the quantitative sandwich ELISA principle, using two mouse monoclonal antibodies (Roche Applied Science) targeted against DNA and 5-bromo-2′-deoxyuridine (BrdU).
In brief, the BrdU-labeled DNA fragments of the samples were bound to the immobilized anti-DNA antibody, fixing it within the wells of a microtiter plate. The immune-complexed BrdU-labeled DNA fragments were then denatured and fixed to the surfaces of the plates via the application of microwave irradiation. In the final step, the anti-BrdU peroxidase conjugate was allowed to react with the BrdU that had been incorporated into the DNA. After the removal of the unbound peroxidase conjugates, the quantity of peroxidase bound within the immune complex was determined photometrically, using TMB as a substrate.

[2] = tested on: human neutrophils; assay: Intracellular calcium mobilization (fura-2) in human neutrophils; type: cell-based; conditions: 1 M PACAP27 and 10 nM WKYMVm
Procedure: Neutrophils were stimulated with 1 μM of PACAP27 (SEQ ID NO:1), PACAP38 (SEQ ID NO:2), or VIP (SEQ ID NO:3), and calcium concentrations were measured for 10 min. In order to measure EKR phosphorylation, each peptide hormones was used with 1 μM concentrations for 5 min. For cAMP measurement, each peptide hormones was used with 1 μM concentrations for 10 min.
Intracellular calcium concentrations ([Ca^2+]i) were determined using Grynkiewicz's method with fura-2/AM, as described in “Grynkiewicz, G., M. Poenie, and R. Y. Tsien. 1985. […] J. Biol. Chem. 260:3440-3450”. Briefly, the cells prepared in Example 1.2 were incubated with 3 µM fura-2/AM at 37° C. for 50 minutes in fresh serum free RPMI 1640 medium with continuous stirring. The incubated cells (2×10^6) were aliquoted for each assay in Ca^2+-free Locke's solution (154 mM NaCl, 5.6 mM KCl, 1.2 mM MgCl2, 5 mM HEPES (pH 7.3), 10 mM glucose, and 0.2 mM EGTA). Fluorescence changes at 340 and 380 nm using a common emission wavelength of 500 nm were measured, and fluorescence ratios were converted to [Ca2+]i, as described in above Grynkiewicz, G. et al.

[3] = tested on: HUVECs; assay: HUVEC tube formation assay on Matrigel; type: cell-based, human; conditions: SAA 5 μM, 18 h
Procedure: The wounding migration and tube formation activity of the HUVECs were measured as previously described (30, 31). In brief, HUVECs plated at confluence on 60-mm culture dishes were wounded with pipette tips, then treated with SAA (SEQ ID NO:19) (0-5 μg/ml), WKYMVm (SEQ ID NO:5) (10 nM), or VEGF (20 ng/ml) in M199 medium, supplemented with 1% serum and 1 mM thymidine. After 12 h of incubation, migration was quantitated via counts of the cells migrating beyond the reference line. […] After 18 h of incubation, the cell morphology was visualized via phase-contrast microscopy and photographed.

[4] = tested on: aortic rings; assay: Rat aorta ring assay; conditions: ex vivo, 7 days
Procedure: Aortas from male Sprague-Dawley rats were cross-sectioned into rings, and mounted onto polymerized Matrigel dishes. Matrigel (150 μl) was then positioned on top and allowed to gel. After 7 days, the aortic rings, incubated with PBS, SAA (SEQ ID NO:19) (3 and 5 μg/ml), WKYMVm (SEQ ID NO:5) (10 nM), VEGF (20 ng/ml), or FBS (10%) were analyzed under an inverted microscope.

[5] = tested on: HUVECs; assay: HUVEC proliferation ([3H]-thymidine incorporation); type: cell-based, human; conditions: 48 h
Procedure: In brief, fresh synovial tissues were minced into 2- to 3-mm pieces, then treated for 4 h with 4 mg/ml type I collagenase (Worthington Biochemical), and maintained in Dulbecco's Modified Eagle's Medium (DMEM) containing 10% FBS at 37° C. in an atmosphere containing 5% CO2. […] MH7A cells, the immortalized synoviocytes that harbor the SV40 T antigen, were grown in DMEM supplemented with 10% FBS, as previously described (Miyazawa, K, A. Mori, and H. Okudaira. 1998. Establishment and characterization of a novel human rheumatoid fibroblast-like synoviocyte line, MH7A, immortalized with S[…] antigen. J. Biochem. 124: 1153-1162), and then employed in some of the experiments. Human umbilical vein endothelial cells (HUVECs) were isolated from fresh human umbilical cords via collagenase (Worthington Biochemical) digestion, and then maintained in 20% FBS-containing M-199 medium (Sigma, St. Louis, Mo.), as previously described. All HUVECs were used after no more than five passages. The RA FLS, OA FLS, and HUVECs were plated onto 24-well culture dishes at a density of 2×10^4 cells/well, and then permitted to attach overnight. […] Cell growth was also evaluated via cell counts. Control and mitogen-treated cells were harvested by trypsinization, and the number of cells was determined with a hemocytometer, under ×100 magnification.

| Molecule | serum starvation-induced apoptosis (MTT assay, DNA fragmentation ELISA) [1] | calcium signaling on sequential stimulation (cross-desensitization) [2] | formation of tube-like structures [3] | sprouting of endothelial cells from aortic rings [4] | DNA fragmentation induced by SNP (0.7 mM) or anti-Fas (0.7 μg/ml) plus CHX (1 μg/ml) ([1]; SAA 3 μM, 12 h) | concentration of maximum effects on HUVEC DNA synthesis [5] | DNA synthesis in HUVECs ([5]; SAA 0.1 to 5 μM) |
| --- | --- | --- | --- | --- | --- | --- | --- |
| WKYMVm: specific agonist peptide for FPRL1, SEQ ID NO:5 (WKYMV[dM]; listed as Homo sapiens) | mitigating starvation-induced cell death | bidirectional desensitization |  |  |  |  |  |
| B1 | dose-dependent inhibition |  | far superior | increased as the result of SAA treatment, in a dose-dependent manner | blocked almost completely | 5 µM | dose-dependent manner |
